Assay results: patent US12077566B2, “Mutants of recombinant immunoregulatory protein of Ganoderma lucidum and applications thereof” (priority 2017, dated 2024)
Entries after “also recorded” stand apart in the source; their conditions may differ.

How the values were obtained:
[1] = tested on: human lung cancer A549 cells; assay: Orthotopic transplantation tumor model of human lung cancer A549 cells; details: for Mice survival rate after experiment / Mice tumor weight after experiment / Mice weight after experiment / Tumor inhibitory effect (in words): after administration for 28 days; for Effect on survival time (in words): compared with the rLZ-8;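 as to all read-outs here: test animals were NOG mice aged 6-8 weeks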
Description: The human lung cancer A549 cell strain is selected. The NOG Mice of 6-8 weeks old are selected.
The DMEM containing 10% fetal bovine serum is selected for the human lung cancer A549 cells, and then is placed in the CO2 constant-temperature incubator at 37° C. for culturing. The A549 cells at the logarithmic phase are digested by pancreatin and thereafter washed with serum-free DMEM; the living cell concentration is adjusted to 1×10^8 cells per milliliter; 20 μL cell suspension is taken and inoculated at the lung of the NOG mice; two weeks later, the orthotopic transplantation tumor model of A549 lung cancer cells is constructed in the NOG mice.

[2] = tested on: human colon cancer SW480 cells; assay: Transplantation tumor model of human colon cancer SW480 cells; type: in vivo, BALB/c nude mice; details: after administration for 28 days
[3] = tested on: human breast cancer MCF7 cells; assay: Orthotopic transplantation tumor model of human breast cancer MCF7 cells; type: in vivo, BALB/c nude mice; details: after administration for 28 days
Description: One day before the experiment, 0.5 mg of 17ß estradiol sustained release tablet is embedded below the neck skin of the BALB/c nude mice.

[4] = target: EGFR extracellular domain (Homo sapiens, UniProt P00533); assay: Affinity test by surface plasmon resonance (Biacore T200, CM5 chip); type: binding; details: for Affinity with the EGFR (in words): compared with rLZ-8
Description: The Biacore™ T200 equipment (a Surface Plasmon Resonance from GE Company) is selected. Through the surface plasma resonance technology, the affinity of the rLZ-8 and the mutants thereof to the EGFR extracellular domain is tested. The CM5 chip is adopted to serve as the affinity test chip.
The EGFR extracellular domain (with an amino acid sequence of 25-645) serves as the ligand for coupling; 1 mg EGFR freeze-dried powders are diluted with HEPES buffer solution to a concentration of 400 μg/mL and set aside. Three 1.5 mL EP tubes are prepared; 10 μL ligand are respectively added into the three tubes, then 90 μL 10 mM sodium acetate with different pH values of 4.5, 5.0 and 5.5 are respectively added into the tubes and are mixed completely and uniformly; and a final concentration of the ligand is 40 μg/mL. Moreover, 200 μL 50 mM sodium acetate is added into another 1.5 mL EP tube.
The ligand has a molecular weight of 70 kDa, the analyte (rLZ-8) has a molecular weight of 12.4 kDa. In theory, one rLZ-8 […] can bind with one EGFR, and thus the stoichiometric ratio Sm is equal to 1. Through the following equations, the coupling amount RL of the ligand is calculated.
Through the experimental experience, the optimal reagent coupling amount is set to be 3*RL, and the coupling amount is set to be 1700 RU. The EGFR extracellular domain is successively coupled on the CM5 chip.
In the affinity test, in order to eliminate the influence of different concentrations on the affinity, every of the rLZ-8 and the mutants thereof are tested with eight concentrations, wherein: seven concentrations are gradient concentrations, and the last one is the test reference concentration.

[5] = tested on: human liver cancer Hep G2 cells; details: for Tumor inhibitory effect (in words): after administration for 28 days; for Mice weight after experiment / Effect on survival time of the mice (in words): mouse, in vivo; for Mice tumor weight after experiment / Survival rate of mice after experiment: qd×28 i.v., rLZ-8 and mutants 0.5 mg/kg, sorafenib 50 mg/kg; for Survival rate of mice after experiment: 10 mice per group
From the text: Two weeks later, the model mice are divided into groups randomly, and each group has 10 mice. The administration method is caudal vein injection, once a day, for consecutive 28 days (qd×28, i.v.). […] During the experiment, if the mouse dies, the dead mouse is weighted on the same day, and the tumor tissue is taken out to be weighted. For the living mouse after administration for 28 days, the mouse is killed, and then the tumor tissue is taken out to be weighted. The death time and death number of the mice in each group are recorded in detail; the survival conditions of the mice of the experimental groups and the control groups are analyzed, and the survival rate is calculated, wherein the survival rate is obtained through subtracting the death number of the mice from the total number of the mice, and then dividing the difference by the total number of the mice.

[6] = tested on: liver cancer, lung cancer, breast cancer and colon cancer; assay: Animal pharmacodynamic experiments of liver, lung, breast and colon cancer (summary statement); type: in vivo, mice; details: breast and colon cancer models together
[7] = tested on: tumor; assay: Early animal pharmacodynamic experiments of PEG-modified rLZ-8; type: in vivo; details: compared with rLZ-8
[8] = EGFR extracellular domain coupled on CM5 chip, analyte 4-256 nM

Molecule | Mice survival rate after experiment [1] | Mice tumor weight after experiment [1] | Mice weight after experiment [1] | Tumor inhibitory effect (in words) [1] | Mice tumor weight after experiment [2] | Tumor inhibitory effect (in words) [2] | Mice tumor weight after experiment [3] | Tumor inhibitory effect (in words) [3] | Dissociation rate constant (koff) [4, 8] | Ka [4, 8] | Affinity with the EGFR (in words) [4] | Affinity with the EGFR (in words) ([4]; listed as rLZ-8 (K16A/K41 A)) | Tumor inhibitory effect (in words) [5] | Mice weight after experiment [5] | Mice tumor weight after experiment [5] | Survival rate of mice after experiment [5] | Tumor inhibitory effect (in words) [6] | Effect on survival time (in words) [1] | Effect on survival time of the mice (in words) [5] | Antitumor effect (in words) [7]
rLZ-8 (K16A/K41A): alanine mutant of rLZ-8 at K16 and K41 (protein) MSDTALIFRLAWDVKALSFDYTPNWGRGNPNNFIDTVTFPAVLTDKAYTYRVAVSGRNLGVKPSYAVESDGSQKVNFLEYNSGYGIADTNTIQVFVVDPDTNNDFIIAQWN | 20% | 1.26 ± 0.77 g | 17.4 ± 1.5 g | nearly no tumor inhibitory effect | 3.12 ± 0.47 g | nearly no tumor inhibitory effect | 1.12 ± 0.37 g | nearly no tumor inhibitory effect | 0.000273 s⁻¹ | 220 M⁻¹ s⁻¹ | obviously decreased by 2-3 orders of magnitudes | obviously decreased affinity | nearly no tumor inhibitory effect | 17.2 ± 1.3 g | 1.46 ± 0.93 g | 20% | nearly no tumor inhibitory effect |  |  | 
rLZ-8 (D70K): rLZ-8 mutant after surface potential optimization, D70K (protein) MSDTALIFRLAWDVKKLSFDYTPNWGRGNPNNFIDTVTFPKVLTDKAYTYRVAVSGRNLGVKPSYAVESKGSQKVNFLEYNSGYGIADTNTIQVFVVDPDTNNDFIIAQWN | 80% | 0.36 ± 0.28 g | 21.1 ± 1.2 g | obviously increased tumor inhibitory effect | 1.22 ± 0.29 g | obviously increased tumor inhibitory effect | 0.52 ± 0.28 g | obviously increased tumor inhibitory effect |  | 203000 M⁻¹ s⁻¹ |  |  | obviously increased tumor inhibitory effects | 20.7 ± 1.7 g | 0.35 ± 0.21 g | 80% | obviously increased tumor inhibitory effects | can obviously lengthen the survival time | certain effect on lengthening the survival time | 
rLZ-8 (D45A): alanine mutant of rLZ-8 at D45 (protein) MSDTALIFRLAWDVKKLSFDYTPNWGRGNPNNFIDTVTFPKVLTAKAYTYRVAVSGRNLGVKPSYAVESDGSQKVNFLEYNSGYGIADTNTIQVFVVDPDTNNDFIIAQWN | 30% | 1.28 ± 0.68 g | 17.5 ± 1.5 g | nearly no tumor inhibitory effect | 3.26 ± 0.56 g | nearly no tumor inhibitory effect | 1.08 ± 0.28 g | nearly no tumor inhibitory effect |  | 1200 M⁻¹ s⁻¹ | obviously decreased by 2-3 orders of magnitudes; also recorded: obviously decreased affinity |  | nearly no tumor inhibitory effect | 17.4 ± 1.6 g | 1.44 ± 0.80 g | 50% | nearly no tumor inhibitory effect |  |  | 
rLZ-8 (L17K/D70K): rLZ-8 mutant after surface potential optimization, L17K and D70K (protein) MSDTALIFRLAWDVKKKSFDYTPNWGRGNPNNFIDTVTFPKVLTDKAYTYRVAVSGRNLGVKPSYAVESKGSQKVNFLEYNSGYGIADTNTIQVFVVDPDTNNDFIIAQWN | 80% | 0.40 ± 0.26 g | 21.2 ± 1.5 g | obviously increased tumor inhibitory effect | 1.09 ± 0.33 g | obviously increased tumor inhibitory effect | 0.49 ± 0.26 g | obviously increased tumor inhibitory effect |  | 215000 M⁻¹ s⁻¹ |  |  | obviously increased tumor inhibitory effects | 21.0 ± 1.8 g | 0.42 ± 0.23 g | 90% | obviously increased tumor inhibitory effects | can obviously lengthen the survival time | certain effect on lengthening the survival time | 
rLZ-8 (S18A): alanine mutant of rLZ-8 at S18 (protein) MSDTALIFRLAWDVKKLAFDYTPNWGRGNPNNFIDTVTFPKVLTDKAYTYRVAVSGRNLGVKPSYAVESDGSQKVNFLEYNSGYGIADTNTIQVFVVDPDTNNDFIIAQWN | 30% | 1.20 ± 0.70 g | 17.8 ± 1.6 g | nearly no tumor inhibitory effect | 3.01 ± 0.39 g | nearly no tumor inhibitory effect | 1.04 ± 0.30 g | nearly no tumor inhibitory effect |  | 3720 M⁻¹ s⁻¹ | obviously decreased by 2-3 orders of magnitudes; also recorded: obviously decreased affinity |  | nearly no tumor inhibitory effect | 17.6 ± 1.4 g | 1.50 ± 0.71 g | 30% | nearly no tumor inhibitory effect |  |  | 
mPEG-SPA-rLZ-8: rLZ-8 modified with methoxy polyethylene glycol succinimidyl propionate (conjugate, UniProt P14945 2-111, looked up, mPEG-SPA PEGylation, rLZ-8 modified with methoxy polyethylene glycol succinimidyl propionate) Immunomodulatory protein Ling …: SDTALIFRLAWDVKKLSFDYTPNWGRGNPNNFIDTVTFPKVLTDKAYTYRVAVSGRNLGVKPSYAVESDGSQKVNFLEYNSGYGIADTNTIQVFVVDPDTNNDFIIAQWN |  |  |  |  |  |  |  |  |  |  |  |  |  |  |  |  |  |  |  | decreased
